Experimental data reported in US20040097712A1 (Amgen, published 2004).

Assays:
[1] = biological target: T1, IL-1R1 on human cells (primary human chondrocytes; human whole blood) (human, UniProt P14778 18-569); test: cell-based or functional assay
T1 sequence (looked up): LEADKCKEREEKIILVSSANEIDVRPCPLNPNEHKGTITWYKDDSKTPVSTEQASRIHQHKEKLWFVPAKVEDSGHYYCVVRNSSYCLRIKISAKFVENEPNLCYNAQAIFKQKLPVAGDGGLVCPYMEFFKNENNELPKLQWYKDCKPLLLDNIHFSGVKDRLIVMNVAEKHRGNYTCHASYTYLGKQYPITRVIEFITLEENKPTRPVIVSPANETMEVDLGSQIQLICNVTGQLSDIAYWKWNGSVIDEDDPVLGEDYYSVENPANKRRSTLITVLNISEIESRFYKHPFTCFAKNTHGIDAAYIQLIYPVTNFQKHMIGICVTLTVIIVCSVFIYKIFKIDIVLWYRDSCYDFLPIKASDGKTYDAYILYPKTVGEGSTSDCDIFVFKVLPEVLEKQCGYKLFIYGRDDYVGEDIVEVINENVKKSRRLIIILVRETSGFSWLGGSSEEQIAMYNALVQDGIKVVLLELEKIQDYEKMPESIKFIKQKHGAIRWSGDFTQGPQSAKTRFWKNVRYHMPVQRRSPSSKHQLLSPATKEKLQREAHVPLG

[2] = biological target: T1, IL-1R1 on human cells (primary human …); test: cell-based or functional assay; remark: listed apart in the source
[3] = biological target: T1, IL-1R1 on human cells (primary human …); test: cell-based or functional assay; remark: listed apart in the source
[4] = biological target: T2, ovalbumin (negative control) (UniProt P01012 2-386); test: ELISA, plates coated with the protein, anti-human Fc-HRP detection
T2 construct: also called OA
T2 sequence (looked up): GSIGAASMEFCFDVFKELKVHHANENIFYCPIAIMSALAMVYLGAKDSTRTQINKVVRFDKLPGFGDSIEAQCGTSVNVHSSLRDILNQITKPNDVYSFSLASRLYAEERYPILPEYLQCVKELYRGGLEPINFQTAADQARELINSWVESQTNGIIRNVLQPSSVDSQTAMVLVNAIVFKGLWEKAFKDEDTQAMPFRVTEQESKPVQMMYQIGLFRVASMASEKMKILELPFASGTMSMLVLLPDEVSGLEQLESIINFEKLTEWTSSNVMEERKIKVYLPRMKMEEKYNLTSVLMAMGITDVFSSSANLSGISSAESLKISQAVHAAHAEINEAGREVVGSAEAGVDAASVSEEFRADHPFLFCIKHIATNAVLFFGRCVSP
Source text: (§1) The antibodies were subjected to a preliminary epitope sorting experiment. ELISA plates were coated with human sIL-1R1 (1+2+3 domain), truncated human sIL-1R1 (1+2 domain), rat sIL-1R1, human sIL-1R type II, and ovalbumin (negative control). Antibody binding was detected with a horseradish peroxidase-conjugated anti-Human Fc antibody (Pierce Chemical Co., Rockford, Ill.). A check mark (√) in Table 2 represents a positive result for binding; “X” represents a negative result.

[5] = biological target: T3, rat sIL-1R1 (1+2+3 domain) (rat, UniProt Q02955 20-338); test: as above
T3 construct: extracellular domain
T3 sequence (looked up): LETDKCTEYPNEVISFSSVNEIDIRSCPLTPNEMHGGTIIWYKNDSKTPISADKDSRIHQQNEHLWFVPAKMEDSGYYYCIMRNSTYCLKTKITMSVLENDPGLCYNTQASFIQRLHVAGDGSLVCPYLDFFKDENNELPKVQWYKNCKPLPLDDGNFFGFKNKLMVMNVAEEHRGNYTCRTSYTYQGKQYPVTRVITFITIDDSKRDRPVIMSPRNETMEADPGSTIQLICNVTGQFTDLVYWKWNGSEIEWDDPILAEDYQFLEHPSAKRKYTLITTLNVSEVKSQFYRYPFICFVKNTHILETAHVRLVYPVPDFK
Source text: as §1

[6] = biological target: T4, human sIL-1R type II (1+2+3 domain) (human, UniProt P27930 14-343); test: as above
T4 construct: extracellular domain; also called Hu sIL-1RII; human type II receptor
T4 sequence (looked up): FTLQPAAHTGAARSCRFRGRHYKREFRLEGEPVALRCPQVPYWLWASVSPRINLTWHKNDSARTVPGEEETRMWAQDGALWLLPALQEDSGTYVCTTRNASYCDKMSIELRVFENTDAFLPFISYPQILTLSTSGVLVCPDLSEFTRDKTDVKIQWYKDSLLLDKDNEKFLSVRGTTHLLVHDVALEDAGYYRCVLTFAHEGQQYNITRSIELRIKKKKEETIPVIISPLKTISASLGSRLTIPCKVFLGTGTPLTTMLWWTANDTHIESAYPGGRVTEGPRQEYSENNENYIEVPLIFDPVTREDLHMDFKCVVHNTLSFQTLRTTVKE
Source text: as §1

B1: 15C4 human anti-IL-1R1 monoclonal antibody (purified from hybridoma supernatant) (antibody, V domains shown)
VH: EVQLMQSGAEVKKPGESLKISCKGSGYSFSFHWIAWVRQMPGKGLEWMGIIHPGASDTRYSPSFQGQVTISADNSNSATYLQWSSLKASDTAMYFCARQRELDYFDYWGQGTLVTVSS
VL: EIVLTQSPDFQSVTPKEKVTITCRASQSIGSSLHWYQQKPDQSPKLLIKYASQSFSGVPSRFSGSGSGTDFTLTINSLEAEDAAAYYCHQSSSLPLTFGGGTKVEIK
notes: Human IgG kappa from HuMab mice
IC50, inhibition of IL-1β induced IL-6 production in primary human chondrocytes (Table 4A) [1]: 0.016 nM
IC50, inhibition of IL-1β induced IL-6 production in primary human chondrocytes (Table 4B) [2]: 0.007 nM
IC50, inhibition of IL-1-induced IL-6 production in human whole blood, composite (pooled data) [3]: 0.126 nM
IC50, inhibition of IL-1-induced IL-6 production in human whole blood, donor 1047 [3]: 0.126 nM
IC50, inhibition of IL-1-induced IL-6 production in human whole blood, donor 1319 [3]: 0.111 nM
binding result [4]: no binding
binding result [5]: no binding
binding result [6]: no binding
